Results on 4 molecules are retold here after US20180193477A1 (Zymeworks, published 2018).

The target of test [1] is T1, Recombinant CD3epsilon/delta Fc fusion protein (Sino Biological) (UniProt P07766 23-126; P04234 22-105).
T1 construct: Bought reagent; also called recombinant CD3 fusion protein; CD3 antigen; not shown: Fc part of the bought fusion protein; not described
Description: SPR, BioRad ProteOn XPR36, 25 C, anti-Fc capture chip, Equilibrium Fit model, mean of three runs. Background: SPR reads the build-up and loss of mass on a sensor chip optically.

The target in test [2] is T1, Recombinant CD3epsilon/delta Fc fusion …. Description: SPR (summary of Example 6).
The target of test [3] is T2, CD3 on human CD3+ Jurkat T cells (human, UniProt P07766 23-207).
T2 construct: whole, on cells; CD3 is a complex of several chains on the cell; also called CD3 epsilon; CD3e
Description: whole cell FACS binding on Jurkat cells, apparent affinity.

T1 sequence (P07766 23-126, stated change not applied, chain 1 of 2): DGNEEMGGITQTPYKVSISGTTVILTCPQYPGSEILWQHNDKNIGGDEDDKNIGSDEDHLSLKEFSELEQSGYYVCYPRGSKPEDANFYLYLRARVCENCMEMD
T1 sequence (P04234 22-105, stated change not applied, chain 2 of 2): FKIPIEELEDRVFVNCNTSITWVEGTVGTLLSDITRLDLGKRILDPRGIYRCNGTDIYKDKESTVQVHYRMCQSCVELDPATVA
T2 sequence (P07766 23-207): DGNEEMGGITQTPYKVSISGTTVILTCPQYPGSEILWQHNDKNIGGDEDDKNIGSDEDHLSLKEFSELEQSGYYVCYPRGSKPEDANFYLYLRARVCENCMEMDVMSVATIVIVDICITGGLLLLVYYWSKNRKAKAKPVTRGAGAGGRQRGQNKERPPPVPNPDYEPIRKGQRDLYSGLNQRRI

B1: v15193, humanized bispecific anti-CD3-CD19 antigen-binding construct (humanized HD37 Fab / humanized OKT3 scFv hVH1/hVL2) (bispecific antibody, human IgG1, kappa, L234A L235A)
heavy: not shown
chain: QVQLVQSGGGVVQPGRSLRLSCKASGYTFTRYTMHWVRQAPGKGLEWIGYINPSRGYTNYNQKVKGRFTISTDKSKNTAYLQMDSLRAEDTGVYFCARYYDDHYSLDYWGQGTLVTVSSVEGGSGGSGGSGGSGGVDDIQMTQSPSSLSASVGDRVTITCSASSSVSYMNWYQQKPGKAPKRLIYDTSKLASGVPSRFSGSGSGTDYTLTISSLQPEDAATYYCQQWSSNPFTFGQGTKLEIKAAEPKSSDKTHTCPPCPAPEAAGGPSVFLFPPKPKDTLMISRTPEVTCVVVSVSHEDPEVKFNWYVDGVEVHNAKTKPREEQYNSTYRVVSVLTVLHQDWLNGKEYKCKVSNKALPAPIEKTISKAKGQPREPQVYVLPPSRDELTKNQVSLLCLVKGFYPSDIAVEWESNGQPENNYLTWPPVLDSDGSFFLYSKLTVDKSRWQQGNVFSCSVMHEALHNHYTQKSLSLSPG
light: DIQLTQSPSSLSASVGDRATITCRASQSVDYEGDSYLNWYQQKPGKAPKLLIYDASNLVSGIPSRFSGSGSGTDFTLTISSVQPEDAATYYCQQSTEDPWTFGCGTKLEIKRTVAAPSVFIFPPSDEQLKSGTASVVCLLNNFYPREAKVQWKVDNALQSGNSQESVTEQDSKDSTYSLSSTLTLSKADYEKHKVYACEVTHQGLSSPVTKSFNRGEC
notes: also called variant 15193
B1: the Kd in test [1] came out at 370 nM.

B2: v15192, humanized bispecific anti-CD3-CD19 antigen-binding construct (humanized HD37 Fab / humanized OKT3 scFv hVH1/hVL1) (bispecific antibody, human IgG1, kappa, L234A L235A)
heavy: not shown
chain: QVQLVQSGGGVVQPGRSLRLSCKASGYTFTRYTMHWVRQAPGKGLEWIGYINPSRGYTNYNQKVKGRFTISTDKSKNTAYLQMDSLRAEDTGVYFCARYYDDHYSLDYWGQGTLVTVSSVEGGSGGSGGSGGSGGVDDIQMTQSPSSLSASVGDRVTITCSASSSVSYMNWYQQKPGKAPKRWIYDTSKLASGVPSRFSGSGSGTDYTLTISSLQPEDAATYYCQQWSSNPFTFGQGTKLEIKAAEPKSSDKTHTCPPCPAPEAAGGPSVFLFPPKPKDTLMISRTPEVTCVVVSVSHEDPEVKFNWYVDGVEVHNAKTKPREEQYNSTYRVVSVLTVLHQDWLNGKEYKCKVSNKALPAPIEKTISKAKGQPREPQVYVLPPSRDELTKNQVSLLCLVKGFYPSDIAVEWESNGQPENNYLTWPPVLDSDGSFFLYSKLTVDKSRWQQGNVFSCSVMHEALHNHYTQKSLSLSPG
light: DIQLTQSPSSLSASVGDRATITCRASQSVDYEGDSYLNWYQQKPGKAPKLLIYDASNLVSGIPSRFSGSGSGTDFTLTISSVQPEDAATYYCQQSTEDPWTFGCGTKLEIKRTVAAPSVFIFPPSDEQLKSGTASVVCLLNNFYPREAKVQWKVDNALQSGNSQESVTEQDSKDSTYSLSSTLTLSKADYEKHKVYACEVTHQGLSSPVTKSFNRGEC
notes: also called variant 15192
With B2, the binding result in test [2] is reported as “binds”.

B3: v15194, humanized bispecific anti-CD3-CD19 antigen-binding construct (humanized HD37 Fab / humanized OKT3 scFv hVH2/hVL1) (bispecific antibody, human IgG1, kappa, L234A L235A)
heavy: not shown
chain: QVQLVQSGGGVVQPGRSLRLSCKASGYTFTRYTMHWVRQAPGKGLEWIGYINPSRGYTNYNQKVKGRFTISTDNSKNTAYLQMDSLRAEDTGVYFCARYYDDHYSLDYWGQGTLVTVSSVEGGSGGSGGSGGSGGVDDIQMTQSPSSLSASVGDRVTITCSASSSVSYMNWYQQKPGKAPKRWIYDTSKLASGVPSRFSGSGSGTDYTLTISSLQPEDAATYYCQQWSSNPFTFGQGTKLEIKAAEPKSSDKTHTCPPCPAPEAAGGPSVFLFPPKPKDTLMISRTPEVTCVVVSVSHEDPEVKFNWYVDGVEVHNAKTKPREEQYNSTYRVVSVLTVLHQDWLNGKEYKCKVSNKALPAPIEKTISKAKGQPREPQVYVLPPSRDELTKNQVSLLCLVKGFYPSDIAVEWESNGQPENNYLTWPPVLDSDGSFFLYSKLTVDKSRWQQGNVFSCSVMHEALHNHYTQKSLSLSPG
light: DIQLTQSPSSLSASVGDRATITCRASQSVDYEGDSYLNWYQQKPGKAPKLLIYDASNLVSGIPSRFSGSGSGTDFTLTISSVQPEDAATYYCQQSTEDPWTFGCGTKLEIKRTVAAPSVFIFPPSDEQLKSGTASVVCLLNNFYPREAKVQWKVDNALQSGNSQESVTEQDSKDSTYSLSSTLTLSKADYEKHKVYACEVTHQGLSSPVTKSFNRGEC
notes: also called variant 15194
Take B3: in test [1], the Kd is 349 nM.

B4: v15195, humanized bispecific anti-CD3-CD19 antigen-binding construct (humanized HD37 Fab / humanized OKT3 scFv hVH2/hVL2) (bispecific antibody, human IgG1, kappa, L234A L235A)
heavy: not shown
chain: QVQLVQSGGGVVQPGRSLRLSCKASGYTFTRYTMHWVRQAPGKGLEWIGYINPSRGYTNYNQKVKGRFTISTDNSKNTAYLQMDSLRAEDTGVYFCARYYDDHYSLDYWGQGTLVTVSSVEGGSGGSGGSGGSGGVDDIQMTQSPSSLSASVGDRVTITCSASSSVSYMNWYQQKPGKAPKRLIYDTSKLASGVPSRFSGSGSGTDYTLTISSLQPEDAATYYCQQWSSNPFTFGQGTKLEIKAAEPKSSDKTHTCPPCPAPEAAGGPSVFLFPPKPKDTLMISRTPEVTCVVVSVSHEDPEVKFNWYVDGVEVHNAKTKPREEQYNSTYRVVSVLTVLHQDWLNGKEYKCKVSNKALPAPIEKTISKAKGQPREPQVYVLPPSRDELTKNQVSLLCLVKGFYPSDIAVEWESNGQPENNYLTWPPVLDSDGSFFLYSKLTVDKSRWQQGNVFSCSVMHEALHNHYTQKSLSLSPG
light: DIQLTQSPSSLSASVGDRATITCRASQSVDYEGDSYLNWYQQKPGKAPKLLIYDASNLVSGIPSRFSGSGSGTDFTLTISSVQPEDAATYYCQQSTEDPWTFGCGTKLEIKRTVAAPSVFIFPPSDEQLKSGTASVVCLLNNFYPREAKVQWKVDNALQSGNSQESVTEQDSKDSTYSLSSTLTLSKADYEKHKVYACEVTHQGLSSPVTKSFNRGEC
notes: Unconjugated construct as used in SPR and whole cell FACS; also called variant v15195
With B4, the Kd in test [3] came out at 44.7 nM; in test [1], 427 nM.
